One assay deals with T1, HsPPARγΔNTD (135–505) (human, UniProt P37231 135-505).
T1 construct: PPARγ2 without its N-terminal domain, human, residues 135-505 (PPARγ2 has 505 residues); Rosiglitazone was added in a 2-fold excess; also called PPARγ2ΔNTD
T1 sequence (looked up): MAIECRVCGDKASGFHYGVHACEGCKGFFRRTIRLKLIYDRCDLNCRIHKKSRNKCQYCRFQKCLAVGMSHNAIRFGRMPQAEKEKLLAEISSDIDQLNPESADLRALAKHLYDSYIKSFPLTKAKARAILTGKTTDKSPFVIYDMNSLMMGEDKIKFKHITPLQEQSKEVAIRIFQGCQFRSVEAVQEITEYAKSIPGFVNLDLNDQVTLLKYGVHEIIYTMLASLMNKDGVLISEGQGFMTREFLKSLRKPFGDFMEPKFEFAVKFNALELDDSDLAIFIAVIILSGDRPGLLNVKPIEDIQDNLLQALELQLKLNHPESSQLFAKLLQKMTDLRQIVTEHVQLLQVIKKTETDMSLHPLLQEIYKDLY
Kind of assay: co-purification (affinity chromatography, gel filtration); heterodimer partners coexpressed (E. coli BL21 (DE3) or Sf9) and copurified in two steps. The following applies: partners not purified.

Assay [1] has as its target T2, Full-length HsPPARγ2 (1–505) (human, UniProt P37231-1 1-505).
T2 construct: PPARγ2, human, residues 1-505; Rosiglitazone was added in a 2-fold excess; also called PPARg2; full length PPARγ
T2 sequence (looked up): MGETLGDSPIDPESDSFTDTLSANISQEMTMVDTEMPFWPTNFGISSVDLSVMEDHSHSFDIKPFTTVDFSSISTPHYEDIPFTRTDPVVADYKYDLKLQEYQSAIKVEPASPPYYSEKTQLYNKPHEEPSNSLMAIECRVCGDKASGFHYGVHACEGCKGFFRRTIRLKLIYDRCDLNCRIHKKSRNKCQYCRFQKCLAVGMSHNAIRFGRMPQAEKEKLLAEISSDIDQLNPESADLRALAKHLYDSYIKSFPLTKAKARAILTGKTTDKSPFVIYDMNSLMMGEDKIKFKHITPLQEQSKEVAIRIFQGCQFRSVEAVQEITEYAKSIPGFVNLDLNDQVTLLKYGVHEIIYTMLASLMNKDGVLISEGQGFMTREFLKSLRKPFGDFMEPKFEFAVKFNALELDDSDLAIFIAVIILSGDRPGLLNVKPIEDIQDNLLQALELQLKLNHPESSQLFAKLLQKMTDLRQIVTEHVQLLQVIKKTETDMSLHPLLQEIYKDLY
As to the kind of experiment: SAXS; complexes bound to Cyp4A1 PPRE DNA; Tris 20 mM pH 7.5, NaCl 75 mM, KCl 75 mM, MgSO4 4 mM, Glycerol 5%, Chaps 2 mM; ligands CD3254 and rosiglitazone. The following applies: both partners purified.

A further assay concerns the target T3, HsPPARγ LBD (203–477) (human, UniProt P37231-2 203-477).
T3 construct: Rosiglitazone was added in a 2-fold excess; also called PPAR LBD
T3 sequence (looked up): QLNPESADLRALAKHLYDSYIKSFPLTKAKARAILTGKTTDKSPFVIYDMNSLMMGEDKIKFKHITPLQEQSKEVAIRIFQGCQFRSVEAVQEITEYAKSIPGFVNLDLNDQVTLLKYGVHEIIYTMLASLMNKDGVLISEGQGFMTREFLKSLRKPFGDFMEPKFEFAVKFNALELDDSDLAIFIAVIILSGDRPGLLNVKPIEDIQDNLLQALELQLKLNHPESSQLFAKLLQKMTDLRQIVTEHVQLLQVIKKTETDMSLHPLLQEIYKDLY
Kind of assay: co-purification (affinity chromatography, gel filtration); heterodimer partners coexpressed (E. coli BL21 (DE3) or Sf9) and copurified in two steps. Conditions: partners not purified.

In assay [2] the target is T4, PPARγΔNTD/RXRαΔNTD heterodimer (human, UniProt P37231 135-505; P19793 130-462).
T4 construct: PPARγ2 without its N-terminal domain, human, residues 135-505; Retinoid X receptor alpha without its N-terminal domain, human, residues 130-462; nontagged; also called PPARγ2ΔNTD/RXRαΔNTD; PPARγΔNTD/RXRΔNTD
T4 sequence (looked up) 1: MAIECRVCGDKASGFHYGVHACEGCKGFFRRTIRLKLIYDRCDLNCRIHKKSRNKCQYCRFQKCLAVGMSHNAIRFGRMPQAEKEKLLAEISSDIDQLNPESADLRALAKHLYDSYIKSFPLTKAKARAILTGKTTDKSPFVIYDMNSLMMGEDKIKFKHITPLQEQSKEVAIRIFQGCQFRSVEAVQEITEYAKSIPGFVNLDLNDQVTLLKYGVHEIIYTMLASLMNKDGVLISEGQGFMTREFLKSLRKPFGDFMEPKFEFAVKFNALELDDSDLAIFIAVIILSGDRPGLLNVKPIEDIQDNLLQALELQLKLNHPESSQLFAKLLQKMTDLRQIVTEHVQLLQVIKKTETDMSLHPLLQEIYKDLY
T4 sequence (looked up) 2: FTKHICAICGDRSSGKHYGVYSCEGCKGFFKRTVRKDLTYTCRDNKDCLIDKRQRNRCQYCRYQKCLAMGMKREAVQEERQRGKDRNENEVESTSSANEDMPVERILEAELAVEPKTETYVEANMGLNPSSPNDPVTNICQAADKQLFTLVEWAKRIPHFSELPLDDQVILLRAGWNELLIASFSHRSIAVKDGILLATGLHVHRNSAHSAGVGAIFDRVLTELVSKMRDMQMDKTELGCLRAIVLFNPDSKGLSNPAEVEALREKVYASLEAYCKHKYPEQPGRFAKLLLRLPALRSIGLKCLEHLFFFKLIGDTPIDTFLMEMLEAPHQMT
Kind of assay: AUC; sedimentation equilibrium at 12,000 rpm, fitted with Sedphat; TIF2 RID with PPARγΔNTD/RXRαΔNTD/DNA. Conditions: both partners purified.

For assay [3], the target named is T5, PPARγ/RXRα LBDs heterodimer (human, UniProt P37231-2 203-477; P19793 223-462).
T5 construct: nontagged; Ligands (CD3254 for RXR and rosiglitazone for PPAR) were added in a 2-fold excess; also called PPAR/RXR LBDs; LBD dimer
T5 sequence (looked up) 1: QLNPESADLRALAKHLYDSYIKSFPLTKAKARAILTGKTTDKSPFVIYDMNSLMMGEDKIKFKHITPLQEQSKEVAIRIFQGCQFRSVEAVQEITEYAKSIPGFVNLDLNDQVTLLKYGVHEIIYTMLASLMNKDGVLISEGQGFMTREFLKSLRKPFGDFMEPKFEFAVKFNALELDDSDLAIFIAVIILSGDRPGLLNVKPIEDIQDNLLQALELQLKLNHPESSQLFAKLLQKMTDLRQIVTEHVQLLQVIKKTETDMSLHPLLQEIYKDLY
T5 sequence (looked up) 2: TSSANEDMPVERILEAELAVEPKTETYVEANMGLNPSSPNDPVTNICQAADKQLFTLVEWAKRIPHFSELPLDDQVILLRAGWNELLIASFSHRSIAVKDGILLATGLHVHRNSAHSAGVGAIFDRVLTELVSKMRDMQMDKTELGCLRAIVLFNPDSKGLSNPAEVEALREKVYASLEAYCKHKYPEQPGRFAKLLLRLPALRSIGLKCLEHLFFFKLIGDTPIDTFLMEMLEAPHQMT
As to the kind of experiment: native MS; ESI-MS under nondenaturing conditions, 200 mM ammonium acetate (pH 8.0 in the methods, pH 7.4 in the legend), capillary exit 80 V. Conditions: both partners purified.

Assay [4] concerns the target T6, Full-length PPARγ2/RXRα heterodimer (human, UniProt P37231 1-505; P19793 1-462).
T6 construct: PPARγ2, human, residues 1-505; Retinoid X receptor alpha, human, residues 1-462; also called integral PPARγ/RXRα; full-length heterodimer
T6 sequence (looked up) 1: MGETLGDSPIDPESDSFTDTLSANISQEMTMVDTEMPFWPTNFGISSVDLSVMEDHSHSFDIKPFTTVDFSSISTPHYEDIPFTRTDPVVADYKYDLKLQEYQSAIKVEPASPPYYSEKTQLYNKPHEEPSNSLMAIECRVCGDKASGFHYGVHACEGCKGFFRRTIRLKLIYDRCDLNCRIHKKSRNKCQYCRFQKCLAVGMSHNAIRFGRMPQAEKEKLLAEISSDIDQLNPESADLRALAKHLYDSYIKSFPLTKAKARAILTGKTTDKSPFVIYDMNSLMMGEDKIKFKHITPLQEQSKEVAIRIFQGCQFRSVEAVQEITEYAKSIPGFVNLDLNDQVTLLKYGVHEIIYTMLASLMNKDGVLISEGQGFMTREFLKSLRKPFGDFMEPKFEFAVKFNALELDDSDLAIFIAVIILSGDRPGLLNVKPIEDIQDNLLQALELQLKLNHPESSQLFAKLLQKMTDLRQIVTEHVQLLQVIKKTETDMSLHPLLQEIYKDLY
T6 sequence (looked up) 2: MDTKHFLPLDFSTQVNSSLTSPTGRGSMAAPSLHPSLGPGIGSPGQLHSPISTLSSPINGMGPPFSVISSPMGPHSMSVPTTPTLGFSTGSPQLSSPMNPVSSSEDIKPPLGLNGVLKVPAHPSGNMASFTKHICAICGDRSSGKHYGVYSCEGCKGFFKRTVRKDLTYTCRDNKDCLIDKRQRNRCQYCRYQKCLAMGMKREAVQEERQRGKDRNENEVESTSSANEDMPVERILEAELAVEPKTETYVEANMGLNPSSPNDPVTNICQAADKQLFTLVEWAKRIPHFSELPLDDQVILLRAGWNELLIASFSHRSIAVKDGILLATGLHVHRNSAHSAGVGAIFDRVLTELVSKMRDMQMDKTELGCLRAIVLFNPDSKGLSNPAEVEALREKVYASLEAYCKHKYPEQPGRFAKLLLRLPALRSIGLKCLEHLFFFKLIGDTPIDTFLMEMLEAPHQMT
As to the kind of experiment: SAXS; complexes bound to Cyp4A1 PPRE DNA; Tris 20 mM pH 7.5, NaCl 75 mM, KCl 75 mM, MgSO4 4 mM, Glycerol 5%, Chaps 2 mM; ligands CD3254 and rosiglitazone. The following applies: both partners purified.

B1: HsRXRαΔNTD (130–462) (domain or fragment, human, UniProt P19793 130-462, looked up)
chain: FTKHICAICGDRSSGKHYGVYSCEGCKGFFKRTVRKDLTYTCRDNKDCLIDKRQRNRCQYCRYQKCLAMGMKREAVQEERQRGKDRNENEVESTSSANEDMPVERILEAELAVEPKTETYVEANMGLNPSSPNDPVTNICQAADKQLFTLVEWAKRIPHFSELPLDDQVILLRAGWNELLIASFSHRSIAVKDGILLATGLHVHRNSAHSAGVGAIFDRVLTELVSKMRDMQMDKTELGCLRAIVLFNPDSKGLSNPAEVEALREKVYASLEAYCKHKYPEQPGRFAKLLLRLPALRSIGLKCLEHLFFFKLIGDTPIDTFLMEMLEAPHQMT
notes: Retinoid X receptor alpha without its N-terminal domain, human, residues 130-462; nontagged (pACYC plasmid); CD3254 was added in a 2-fold excess; also called RXRΔNTD
Regarding B1, the binding result (with HsPPARγΔNTD (135–505); in assay [1]) was “binds” throughout.

B2: HsRXRα LBD (223–462) (domain or fragment, human, UniProt P19793 223-462, looked up)
chain: TSSANEDMPVERILEAELAVEPKTETYVEANMGLNPSSPNDPVTNICQAADKQLFTLVEWAKRIPHFSELPLDDQVILLRAGWNELLIASFSHRSIAVKDGILLATGLHVHRNSAHSAGVGAIFDRVLTELVSKMRDMQMDKTELGCLRAIVLFNPDSKGLSNPAEVEALREKVYASLEAYCKHKYPEQPGRFAKLLLRLPALRSIGLKCLEHLFFFKLIGDTPIDTFLMEMLEAPHQMT
notes: nontagged (pACYC plasmid); CD3254 was added in a 2-fold excess; also called RXR LBD
As to B2, in the assay with HsPPARγ LBD (203–477), the binding result was “binds”.

B3: HsTIF-2 (632–772), TIF2 receptor interacting domain (RID) (domain or fragment, human, UniProt Q15596 632-772, looked up)
chain: LHDSKGQTKLLQLLTTKSDQMEPSPLASSLSDTNKDSTGSLPGSGSTHGTSLKEKHKILHRLLQDSSSPVDLAKLTAEATGKDLSQESSSTAPGSEVTIKQEPVSPKKKENALLRYLLDKDDTKDIGLPEITPKLERLDSK
notes: TIF2 (NCoA2, p160 member), human, residues 632-772: 15 kDa fragment with the three LXXLL motifs; also called TIF2 RID; TIF-2 RID
The term stoichiometry N denotes a count of units in the complex or per binding partner. As for B3, the results for the “stoichiometry N” value in assay [2], in assay [3] and in assay [4] were 1 TIF2 RID per heterodimer, 1 TIF2 RID per heterodimer and 1 coactivator per receptor dimer, respectively.

Values taken from PMC3539437, “Solution Structures of PPARγ2/RXRα Complexes” (PPAR Research, 2012).
